experiment: soluble on expression in E. coli; label from the status in PepcDB or PDB records

| Sequence | soluble on expression in E. coli |
| --- | --- |
| YRDINEIDINMNDPLFTKQWYLINTGQADGTPGLDLNVAEAWELGYTGKGVTIGIMDDGIDYLHPDLASNYNAEASYDFSSNDPYPYPRYTDDWFNSHGTRCAGEVSAAANNNICGVGVAYNSKVAGIRMLDQPFMTDIIEASSISHMPQLIDIYSASWGPTDNGKTVDGPRELTLQAMADGVNKGRGGKGSIYVWASGDGGSYDDCNCDGYASSMWTISINSAINDGRTALYDESCSSTLASTFSNGRKRNPEAGVATTDLYGNCTLRHSGTSAAAPEAAGVFALALEANLGLTWRDMQHLTVLTSKRNQLHDEVHQWRRNGVGLEFNHLFGYGVLDAGAMVKMAKDWKTVPERFHCVGGSVQDPEKIPSTGKLVLTLTTDACEGKENFVRYLEHVQAVITVNATRRGDLNINMTSPMGTKSILLSRRPRDDDSKVGFDKWPFMTTHTWGEDARGTWTLELGFVGSAPQKGVLKEWTLMLHGTQSAPYIDQVVRDYQSKLAMSKKEELEEELDEAVERSLKSILNKN | soluble |
| MELDLISYELDEKTKEGIEKVVEKFFTKAEPDLVLIFDKAGRILACKGMDISDTYSEFISSILSALFFASEELTSMLDKNDEMKDVFYETKNRVFLMARLEKDFLIGVISRKNLSLGSIRLFFNHLVSDLNAVLKNLKEVEKKSLKISKEELKKKLDQILGS | not soluble |
| MSLKMIISYGMPKSASTFAWLVIKKICLNSRLDDVVDLSTAAKGNDSVEDYIDGSVKVNAAQITREVGERCCVIKTHSSAVHFRTLVGGSAFFLPFAQHRDPRDVALSLMDHARRSRELGIADYADCLSIEGCLPVIDSSIENFIEWVDQYSAIPISYDYLCFNGLACLSFIASALDCDVDCAAILKGFERKESIAQFNKGIRHRWVDEMPQAQARMLFRRYEEYYDRFGAEGHHHHHH | not soluble |
| LIPILGLGNYTAQVDIELDFSAVEQTRKVFDPNTPATRSEYTLEDYNNGNVVAGVPGALSNQPPADASIPQDVAQMKDGSVMGQGSVHKEATRNYELDTTISHERKQSGVINRQTVAVAVKSRSSVNPDTGEVTYTPLSEADLNSIRQVLIGTVGYSENRGDLLNVLSMPF | not soluble |
| MAAAPFDPAEVFQVFGMRRVDSASFDEQVVQAPGDDLRCVFLWGQDCYNCGIFKQTALLQRQALLALELSWFEADVYADEALGRRFSLHGVPTFVLYRSGKRLGRVTGWPGLPQFSAAMQRLRDGT | not soluble |
| MDNAHTPPFAGLTPDAILDAVESLGLRASGSLLALNSYENRVYQVGLDDAAPLVAKFYRPARWSDAAILEEHAFSLQLAEREIPAVPPLAFGGRTLHGHGGFRFALFERRGGRVPELDRDETLQWVGRFLGRIHALGRTEGYRHRPTLDMQSFGREPVDFVLGGGWLPPELEAVYRGVAEQALQGVARCFERAGPVAQLRLHGDCHVGNLLWTDAGPHFVDFDDSRMGPAVQDLWMLLSGERAEQSRQLGEVLAGYEDFCEFDLRELNLLEALRTLRLLHYSAWLARRWHDPAFPAAFPWFGAPRYWEEQILALREQIALMDEPPLWSCLEHHHHHH | not soluble |
| MGHHHHHHSHMPKKKTGARKKAENRREREKQLRASRSTIDLAKHPCNASMECDKCQRRQKNRAFCYFCNSVQKLPICAQCGKTKCMMKSSDCVIKHAGVYSTGLAMVGAICDFCEAWVCHGRKCLSTHACACPLTDAECVECERGVWDHGGRIFSCSFCHNFLCEDDQFEHQASCQVLEAETFKCVSCNRLGQHSCLRCKACFCDDHTRSKVFKQEKGKQPPCPKCGHETQETKDLSMSTRSLKFGRQTGGEEGDGASGYDAYWKNLSSDKYGDTSYHDEEEDEYEAEDDEEEEDEGRKDSDTESSDLFTNLNLGRTYASGYAHYEEQEN | soluble |
| MRNTVNILGIPIDNVSMDEALNVVKGFLSEDRVHTVYTPNSEIMMAAQRDPELKKILCEADLLVPDGAGVVLASKINGCPLKERVAGFDLTNMLFSDEAAKAVNFFFLGGKPGVAEEAYKNLLDRKININVVGIRNGYFTKDEEEEIIRQINDSNTDVLLVALGAPKQEKWIHANKEKLKVKVCIGVGGTFDVLAGRAKRAPVFFQKHGLEWLYRLYKEPWRFVRMLDLPRFILRVIANKIRPEKPERA | soluble |
| MGSDKIHHHHHHMMDFDFLEGKRLTEDVALDETMVWNEDIEMLDLHLVATSALIGVVHRVSYELLSRYLPNDYTAVVVETLARHVKAVPTGTRVAVGVRVVGVVGNRVKFRGIVMSGDEKILEAEFVRAIVPREKLRRLALEKAEKTSRLFGI | soluble |
| MTLHKERRIGRLSVLLLLNEAEESTQVEELERDGWKVCLGKVGSMDAHKVIAAIETASKKSGVIQSEGYRESHALYHATMEALHGVTRGEMLLGSLLRTVGLRFAVLRGNPYESEAEGDWIAVSLYGTIGAPIKGLEHETFGVGINHI | soluble |
| MAKNDIWTPLESNPDSLYLYSCKLGQSKLKFVDIYGFNNDLLDMIPQPVQAVIFLYPVNDNIVSENNTNDKHNLKENFDNVWFIKQYIPNSCGTIALLHLYGNLRNKFELDKDSVLDDFFNKVNEMSAEKRGQELKNNKSIENLHHEFCGQVENRDDILDVDTHFIVFVQIEGKIIELDGRKDHPTVHCFTNGDNFLYDTGKIIQDKFIEKCKDDLRFSALAVIPNDNFDII | soluble |
| STPSIVIASAARTAVGSFNGAFANTPAHELGATVISAVLERAGVAAGEVNEVILGQVLPAGEGQNPARQAAMKAGVPQEATAWGMNQLCGSGLRAVALGMQQIATGDASIIVAGGMESMSMAPHCAHLRGGVKMGDFKMIDTMIKDGLTDAFYGYHMGTTAENVAKQWQLSRDEQDAFAVASQNKAEAAQKDGRFKDEIVPFIVKGRKGDITVDADEYIRHGATLDSMAKLRPAFDKEGTVTAGNASGLNDGAAAALLMSEAEASRRGIQPLGRIVSWATVGVDPKVMGTGPIPASRKALERAGWKIGDLDLVEAAEAFAAQACAVNKDLGWDPSIVNVNGGAIAIGHPIGASGARILNTLLFEMKRRGARKGLATLCIGGGMGVAMCIESL | soluble |
| MGSDKIHHHHHHMVSKMTNQRVLTVPGGINFRELGGYSTKDGRKIKWHKVIRTGGLDQLTPTGQALLDDYGVRYDIDFRSPQEVLDAPDRIPANAKYVYAPVFNVDETRNSDGTDKMTANLEKHPDSGFKHMLKVYQMVADEQHAKDEYRRFFDNLLANDQPDSTLLFHCTAGKDRTGMGAVYLLTALGVDFETIKQDYLLTNQASIGRINGAMAEARAQGASDATVESIRALWSVDADYLDAAMTEIKRQSGNLNHYLHTELKLTNNEINDLQRIYLE | not soluble |
| MSLTELTGNPRHDQLLMLIAERGYMNIDELANLLDVSTQTVRRDIRKLSEQGLITRHHGGAGRASSVVNTAFEQREVSQTEKKKAIAEAVADYIPDGSTIFITIGTTVEHVARALLNHNHLRIITNSLRVAHILYHNPRFEVMVPGGTLRSHNSGIIGPSAASFVADFRADYLVTSVGAIESDGALMEFDVNEANVVKTMMAHARNILLVADHTKYHASAAVEIGNVAQVTALFTDELPPAALKSRLQDSQIEIILPQEDALEHHHHHH | soluble |
| MGHHHHHHSHMNFIKDNSRALIQRMGMTVIKQITDDLFVWNVLNREEVNIICCEKVEQDAARGIIHMILKKGSESCNLFLKSLKEWNYPLFQDLNGQSLFHQ | not soluble |
| AHHHHHHGSITLELHPSEIARYFELEECSHYFSNLLLRKRGELQEFEPIIRRKEIETIELAKWGDEFELSLLQEFKKGEALKKLGVKELPRFYGFLTENDTPVRKFFEKYFKDGIIVEEDPDKLLEIINSEKSAVIYQAPLKGRIGKFDVSGRADFIIKVGKTLYLLEAKFTKEEKFYHRIQAIIYAHLLSQMIEGYEIKLAVVTKENFPIPSNFLRFPGDVEELKITLEEKLGGILREQELWIDARCTTCPFEALCLSKALEERSLGLLSLPPGIIRILKEEGIKDLKDMAKLFEFKENSPTNFEEPSIKDPKKTQEIAKRTGINLLKLSRIAQAILKYLDEGETTPLFIPRTGYNLPMDERVGDVEPSYYPPRSLVKVFFYVQTSPITDTIIGISALVKNRQNGERIIVKFVDEPPIEVSDAQEKERMLLIEFFRDVIDAVKSLSPTDKVYLHMYFYNRKQRDDLMDAVKRHKEIRENNAVMALLSLRRAIDWESFSIIKDEIIRRHALPLSPGLGFVTVATQFGYRWRRNKTFARMLEVVARRENGKINLKTLLNISETGIGPEYYPIIDRDNEGIPFTLFWSALVKLATEEDNSRIKRDIRDILSQMVEALKTIEERIPEQYKDAFVKKEGIPKEDLENFDIKKEELADILLEYLQLEFDARFRERSEYYRLPLSIRAYSEESALIKIENIEKKKNDCLLFGKIVLIDENGRIKEYNPKEVLIDIDEGSLVVVTPKKFLDKLRRDPVQRISKSPLGIVEAIDHETGKVVIRLIRVSPGRFTLKHSKFSCKNGLLTITYPEGEVKVTPGEIVIVDPSVDDIGMERAYNVLSEISQGELKHEIYQKVKAIYEGNTESRYEVNIWKKKHIEEFLSRVKKINEEQKKFAIDINNFLVTLQGPPGTGKTSGAIAPAILARAYSMVKDKKNGLFVVTGVSHRAVNEALIKTLKLKKELENTLKELRKIDLIRAVSGEEAIKIIKEELEREIKDDVDRIRFTAQEITHSSKQRSLDKYFANSGTVRIVFGTPQTLNKLMKNTKEVELVVIDEASMMDLPMFFLSTKVCKGQVLLVGDHRQMEPIQVHEWQLEDRKTFEEHYPFLSALNFIRFLRGELDERELKKFKRILGREPPEWKKDKNEVLPLYRLVRTYRLPQEIADLLSDAIYRADGIKLISEKKKRRKIIARHKDEFLSIVLDDRYPFVLILHDEGNSTKINELEAKIVEKIIKRVENIDIGVVVPYRAQKRLIASLIDSAQVDTVERFQGGEKSLIVISMTSSDPRIPGKGF | not soluble |
| MSSIKIECVLPENCRCGESPVWEEVSNSLLFVDIPAKKVCRWDSFTKQVQRVTMDAPVSSVALRQSGGYVATIGTKFCALNWKEQSAVVLATVDNDKKNNRFNDGKVDPAGRYFAGTMAEETAPAVLERHQGALYSLFPDHHVKKYFDQVDISNGLDWSLDHKIFYYIDSLSYSVDAFDYDLQTGQISNRRSVYKLEKEEQIPDGMCIDAEGKLWVACYNGGRVIRLDPVTGKRLQTVKLPVDKTTSCCFGGKNYSEMYVTCARDGMDPEGLLRQPEAGGIFKITGLGVKGIAPYSYAG | soluble |
| MHHHHHHSSGVDLGTENLYFQSMAHNKIPPRWLNCPRRGQPVAGRFLPLKTMLGPRYDSQVAEENRFHPSMLSNYLKSLKVKMGLLVDLTNTSRFYDRNDIEKEGIKYIKLQCKGHGECPTTENTETFIRLCERFNERNPPELIGVHCTHGFNRTGFLICAFLVEKMDWSIEAAVATFAQARPPGIYKGDYLKELFRRYGDIEEAPPPPLLPDWCFEDDEDEDEDEDGKKESETGSSASFG | soluble |
| MAARKVRIQTTINSNVYEHYIKKLLPEYGQLNKLIEEAVKQLFEIRENELSKLDRLRAKMMREAGVIAIGFESAEKALKGEIEKVLSENEINFLLEWYYGRPIEKIAFEEAIEFMRTALIAMNWAVDAKVNLEGEETHIMVRSNLGRGLAELLCMVIKHFFERNYGVEVRFSVYPGGYTLSFRHVSTDAYPCSSVRE | not soluble |

Source: the DeepSol protein solubility set
